Target: the molecule itself
Assay: cryo-EM structure

B1: full-length wild-type rat P2X7 receptor (receptor, UniProt Q64663 1-595, looked up)
chain: MPACCSWNDVFQYETNKVTRIQSVNYGTIKWILHMTVFSYVSFALMSDKLYQRKEPLISSVHTKVKGVAEVTENVTEGGVTKLVHGIFDTADYTLPLQGNSFFVMTNYLKSEGQEQKLCPEYPSRGKQCHSDQGCIKGWMDPQSKGIQTGRCIPYDQKRKTCEIFAWCPAEEGKEAPRPALLRSAENFTVLIKNNIDFPGHNYTTRNILPGMNISCTFHKTWNPQCPIFRLGDIFQEIGENFTEVAVQGGIMGIEIYWDCNLDSWSHRCQPKYSFRRLDDKYTNESLFPGYNFRYAKYYKENGMEKRTLIKAFGVRFDILVFGTGGKFDIIQLVVYIGSTLSYFGLATVCIDLIINTYASTCCRSRVYPSCKCCEPCAVNEYYYRKKCEPIVEPKPTLKYVSFVDEPHIWMVDQQLLGKSLQDVKGQEVPRPQTDFLELSRLSLSLHHSPPIPGQPEEMQLLQIEAVPRSRDSPDWCQCGNCLPSQLPENRRALEELCCRRKPGQCITTSELFSKIVLSREALQLLLLYQEPLLALEGEAINSKLRHCAYRSYATWRFVSQDMADFAILPSCCRWKIRKEFPKTQGQYSGFKYPY
modifications: limited glycosylation and acylation included in the models (sites not given)
binding result: binds
